The values that follow are results of earlier work, collected in PMC3925188.

Where “and” joins values, the source holds several entries; their conditions need not be identical. Identical values can stand only once.

The series deals with Histone H3K4me3 H3K4me3 (Homo sapiens) (UniProt P68431).

Sequence of KMT2A PHD3 (Q03164 1566-1627): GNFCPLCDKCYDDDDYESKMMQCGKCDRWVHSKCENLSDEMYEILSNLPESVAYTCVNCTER

The term Kd denotes the equilibrium constant for the complex coming apart. Consider KMT2A PHD3 (from UniProt Q03164), for which the dissociation constant (Kd) was 30 µM and 19 µM and 4 µM.
